The supplement of paper PMC10065799, “High-throughput profiling of sequence recognition by tyrosine kinases and SH2 domains using bacterial peptide display” (eLife, 2023)

What was measured:
Grb2 SH2 = Grb2 SH2 (UniProt P62993); assay: SH2 binding enrichment of the phosphorylated peptide, bacterial display (enrichment ratio); higher = better substrate or ligand; peptides without Tyr show the background
SHP2-C SH2 = assay: as above
c-Src SH2 = assay: as above
c-Src = assay: phosphorylation enrichment, bacterial display (enrichment ratio); higher = better substrate or ligand; peptides without Tyr show the background
Jak2 = Jak2 (UniProt O60674); assay: as above
Jak2, sequence (O60674 whole entry, looked up): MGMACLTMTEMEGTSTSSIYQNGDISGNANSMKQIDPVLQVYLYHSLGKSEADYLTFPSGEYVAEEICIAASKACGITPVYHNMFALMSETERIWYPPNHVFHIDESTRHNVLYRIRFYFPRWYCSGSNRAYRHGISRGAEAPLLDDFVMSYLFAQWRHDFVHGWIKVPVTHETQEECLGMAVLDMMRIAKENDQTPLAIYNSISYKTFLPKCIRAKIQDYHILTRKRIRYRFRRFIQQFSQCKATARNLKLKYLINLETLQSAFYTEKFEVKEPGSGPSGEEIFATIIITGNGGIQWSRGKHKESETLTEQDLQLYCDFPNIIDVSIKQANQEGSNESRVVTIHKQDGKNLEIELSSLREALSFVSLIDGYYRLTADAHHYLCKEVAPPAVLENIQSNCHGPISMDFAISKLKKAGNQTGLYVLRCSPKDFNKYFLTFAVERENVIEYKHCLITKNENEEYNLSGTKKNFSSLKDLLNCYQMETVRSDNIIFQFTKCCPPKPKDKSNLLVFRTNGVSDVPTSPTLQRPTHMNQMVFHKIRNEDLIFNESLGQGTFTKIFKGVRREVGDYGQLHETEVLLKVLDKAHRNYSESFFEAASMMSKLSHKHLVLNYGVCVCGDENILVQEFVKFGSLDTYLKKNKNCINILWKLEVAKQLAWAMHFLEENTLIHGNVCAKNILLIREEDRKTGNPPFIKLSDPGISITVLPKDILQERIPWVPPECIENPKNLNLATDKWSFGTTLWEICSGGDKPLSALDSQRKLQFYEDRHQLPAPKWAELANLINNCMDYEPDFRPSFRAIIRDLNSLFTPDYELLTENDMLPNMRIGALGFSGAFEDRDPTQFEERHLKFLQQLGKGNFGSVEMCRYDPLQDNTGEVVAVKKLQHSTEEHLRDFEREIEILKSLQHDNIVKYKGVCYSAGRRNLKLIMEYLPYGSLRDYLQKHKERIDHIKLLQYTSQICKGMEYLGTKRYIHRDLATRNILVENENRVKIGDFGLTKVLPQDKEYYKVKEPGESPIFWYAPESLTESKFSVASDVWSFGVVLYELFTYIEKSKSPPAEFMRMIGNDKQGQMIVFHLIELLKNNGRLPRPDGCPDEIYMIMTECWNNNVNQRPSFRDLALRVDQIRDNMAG

Hck = Hck (UniProt P08631); assay: as above
Hck, sequence (P08631 whole entry, looked up): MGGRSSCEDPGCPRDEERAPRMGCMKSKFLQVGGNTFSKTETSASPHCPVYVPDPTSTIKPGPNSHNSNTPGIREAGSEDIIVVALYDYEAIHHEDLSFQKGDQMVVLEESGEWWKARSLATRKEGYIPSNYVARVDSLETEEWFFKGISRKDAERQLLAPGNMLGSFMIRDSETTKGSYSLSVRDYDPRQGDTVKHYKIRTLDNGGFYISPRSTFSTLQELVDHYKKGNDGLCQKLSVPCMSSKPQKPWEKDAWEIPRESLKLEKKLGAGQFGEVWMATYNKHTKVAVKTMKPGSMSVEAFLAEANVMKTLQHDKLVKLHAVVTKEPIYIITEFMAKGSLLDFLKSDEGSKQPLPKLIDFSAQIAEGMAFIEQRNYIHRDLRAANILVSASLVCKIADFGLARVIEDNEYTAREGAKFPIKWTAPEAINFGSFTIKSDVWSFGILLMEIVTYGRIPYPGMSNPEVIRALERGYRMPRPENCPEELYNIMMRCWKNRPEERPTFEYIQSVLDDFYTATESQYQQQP

AncSZ = assay: as above
EPHB1 = EPHB1 (UniProt P54762); assay: as above
EPHB1, sequence (P54762 whole entry, looked up): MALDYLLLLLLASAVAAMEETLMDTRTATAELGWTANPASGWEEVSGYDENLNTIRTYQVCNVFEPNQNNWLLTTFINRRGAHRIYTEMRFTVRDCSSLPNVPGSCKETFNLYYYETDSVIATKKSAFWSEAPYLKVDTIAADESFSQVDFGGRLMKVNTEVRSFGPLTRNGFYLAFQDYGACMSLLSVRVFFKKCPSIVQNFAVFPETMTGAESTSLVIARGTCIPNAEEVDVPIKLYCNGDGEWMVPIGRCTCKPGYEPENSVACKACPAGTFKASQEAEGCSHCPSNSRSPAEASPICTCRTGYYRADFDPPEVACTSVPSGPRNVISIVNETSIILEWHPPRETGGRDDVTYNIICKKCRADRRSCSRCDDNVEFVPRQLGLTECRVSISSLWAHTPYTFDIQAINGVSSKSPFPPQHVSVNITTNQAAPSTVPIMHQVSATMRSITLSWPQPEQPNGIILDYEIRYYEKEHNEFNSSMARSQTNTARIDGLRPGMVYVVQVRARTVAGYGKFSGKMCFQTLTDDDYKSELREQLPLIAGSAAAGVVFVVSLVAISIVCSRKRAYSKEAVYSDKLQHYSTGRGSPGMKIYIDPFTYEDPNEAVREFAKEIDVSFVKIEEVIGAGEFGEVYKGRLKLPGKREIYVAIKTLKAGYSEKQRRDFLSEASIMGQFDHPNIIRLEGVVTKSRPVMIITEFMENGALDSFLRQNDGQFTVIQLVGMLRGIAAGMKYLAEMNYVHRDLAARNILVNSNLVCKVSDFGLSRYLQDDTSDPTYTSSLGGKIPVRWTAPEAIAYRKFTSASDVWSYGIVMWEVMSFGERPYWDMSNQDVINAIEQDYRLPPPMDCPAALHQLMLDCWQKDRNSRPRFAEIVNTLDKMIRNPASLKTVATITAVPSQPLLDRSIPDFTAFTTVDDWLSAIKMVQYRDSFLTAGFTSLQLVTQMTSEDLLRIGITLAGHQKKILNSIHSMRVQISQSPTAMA

FGFR1 = FGFR1 (UniProt P11362); assay: as above
Fer (mouse) = assay: as above
EPHB2 = EPHB2 (UniProt P29323); assay: as above
Fyn = Fyn (UniProt P06241); assay: as above
Fes = Fes (UniProt P07332); assay: as above
c-Abl (mouse) = assay: as above
FGFR3 = FGFR3 (UniProt P22607); assay: as above
FGFR3, sequence (P22607 whole entry, looked up): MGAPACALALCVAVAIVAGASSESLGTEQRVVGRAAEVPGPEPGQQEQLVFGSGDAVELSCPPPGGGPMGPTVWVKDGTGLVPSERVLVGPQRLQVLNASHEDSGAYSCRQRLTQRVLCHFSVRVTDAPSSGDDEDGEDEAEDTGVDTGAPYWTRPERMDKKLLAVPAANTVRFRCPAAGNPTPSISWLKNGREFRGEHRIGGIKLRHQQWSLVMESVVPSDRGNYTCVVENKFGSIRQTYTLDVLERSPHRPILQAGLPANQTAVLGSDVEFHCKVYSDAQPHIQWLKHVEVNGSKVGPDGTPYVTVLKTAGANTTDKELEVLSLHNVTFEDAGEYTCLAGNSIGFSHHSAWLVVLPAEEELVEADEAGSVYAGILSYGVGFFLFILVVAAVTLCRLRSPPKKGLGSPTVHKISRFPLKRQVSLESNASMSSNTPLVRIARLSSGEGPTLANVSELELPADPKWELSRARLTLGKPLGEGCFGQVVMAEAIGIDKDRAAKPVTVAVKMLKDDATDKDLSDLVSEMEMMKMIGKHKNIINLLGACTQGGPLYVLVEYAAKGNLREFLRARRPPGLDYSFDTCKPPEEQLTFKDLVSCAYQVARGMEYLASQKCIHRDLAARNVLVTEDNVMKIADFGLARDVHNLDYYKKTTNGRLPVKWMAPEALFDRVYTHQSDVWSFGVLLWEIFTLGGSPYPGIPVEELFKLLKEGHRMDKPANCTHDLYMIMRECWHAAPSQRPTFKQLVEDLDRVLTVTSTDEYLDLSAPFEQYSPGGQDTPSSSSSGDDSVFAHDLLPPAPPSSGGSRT

MERTK = MERTK (UniProt Q12866); assay: as above
MERTK, sequence (Q12866 whole entry, looked up, the tested form may be a part): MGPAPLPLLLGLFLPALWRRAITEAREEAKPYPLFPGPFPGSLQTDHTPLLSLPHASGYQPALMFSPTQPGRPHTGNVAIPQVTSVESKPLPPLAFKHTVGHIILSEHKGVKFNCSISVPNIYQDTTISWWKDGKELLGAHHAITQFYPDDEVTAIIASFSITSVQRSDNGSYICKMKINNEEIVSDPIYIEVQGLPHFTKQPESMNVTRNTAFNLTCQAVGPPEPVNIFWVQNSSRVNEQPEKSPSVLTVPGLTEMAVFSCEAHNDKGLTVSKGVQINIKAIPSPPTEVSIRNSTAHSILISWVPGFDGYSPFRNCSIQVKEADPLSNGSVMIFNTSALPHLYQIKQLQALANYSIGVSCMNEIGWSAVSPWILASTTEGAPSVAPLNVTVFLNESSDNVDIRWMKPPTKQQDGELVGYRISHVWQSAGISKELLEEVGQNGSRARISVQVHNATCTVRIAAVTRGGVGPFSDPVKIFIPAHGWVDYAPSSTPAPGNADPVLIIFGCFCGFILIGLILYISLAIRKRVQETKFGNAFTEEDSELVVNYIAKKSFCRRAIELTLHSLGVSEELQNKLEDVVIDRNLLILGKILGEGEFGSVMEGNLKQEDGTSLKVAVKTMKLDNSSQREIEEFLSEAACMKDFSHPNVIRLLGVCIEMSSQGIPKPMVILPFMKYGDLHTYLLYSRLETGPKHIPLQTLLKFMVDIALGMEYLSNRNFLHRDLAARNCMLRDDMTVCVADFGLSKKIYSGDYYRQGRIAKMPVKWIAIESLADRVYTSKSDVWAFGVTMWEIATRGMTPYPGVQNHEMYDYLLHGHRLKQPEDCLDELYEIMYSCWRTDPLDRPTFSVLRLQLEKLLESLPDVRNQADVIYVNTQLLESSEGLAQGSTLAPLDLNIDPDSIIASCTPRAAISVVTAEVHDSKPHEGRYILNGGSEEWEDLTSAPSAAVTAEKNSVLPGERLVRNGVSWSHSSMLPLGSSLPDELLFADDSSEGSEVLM
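Wherever SH2 binding enrichment of the phosphorylated peptide, bacterial display is given: peptide library displayed on the E. coli surface as eCPX fusions, selected cells deep-sequenced, score is each peptide's frequency after selection divided by its frequency in the input.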
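Wherever phosphorylation enrichment, bacterial display is given: 11-residue human phosphosite peptides and single-mutation variants displayed on the E. coli surface, counted by deep sequencing, each peptide's frequency after selection divided by its frequency in the unselected input library; frequency after pTyr selection over input frequency; kinase dosed for 20-30% of maximal phosphorylation in three min.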

Grb2 SH2, sequence (P62993 whole entry, looked up): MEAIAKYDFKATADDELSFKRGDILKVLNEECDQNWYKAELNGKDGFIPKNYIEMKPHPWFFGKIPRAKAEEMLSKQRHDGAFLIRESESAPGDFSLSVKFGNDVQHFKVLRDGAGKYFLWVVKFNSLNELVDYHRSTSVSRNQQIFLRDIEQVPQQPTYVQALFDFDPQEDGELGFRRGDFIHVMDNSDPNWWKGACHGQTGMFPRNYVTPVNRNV

| Sequence | SH2 binding enrichment (Grb2 SH2) | SH2 binding enrichment (SHP2-C SH2) | SH2 binding enrichment (c-Src SH2) | phosphorylation enrichment (c-Src) | phosphorylation enrichment (Jak2) | phosphorylation enrichment (Hck) | phosphorylation enrichment (AncSZ) | phosphorylation enrichment (EPHB1) | phosphorylation enrichment (FGFR1) | phosphorylation enrichment (Fer (mouse)) | phosphorylation enrichment (EPHB2) | phosphorylation enrichment (Fyn) | phosphorylation enrichment (Fes) | phosphorylation enrichment (c-Abl (mouse)) | phosphorylation enrichment (FGFR3) | phosphorylation enrichment (MERTK) |
| --- | --- | --- | --- | --- | --- | --- | --- | --- | --- | --- | --- | --- | --- | --- | --- | --- |
| VYYGSYSRPYG [NKAP_Y104] | 1.64 | 1.81 | 2.61 | 7.11 | 2.87 | 8.09 | 1.19 | 1.7 | 2.77 | 0.835 | 2.66 | 9.54 | 0.756 | 8.1 | 2.01 | 6.16 |
| WAKPEYTGGFK | 0.971 | 0.758 | 0.478 | 0.417 | 0.574 | 0.364 | 0.544 | 0.438 | 0.48 | 0.332 | 0.468 | 0.411 | 0.732 | 0.743 | 0.462 | 0.397 |
| WASGIYYVPKG [APBB1IP_Y340_R335W] | 1.21 | 0.959 | 0.883 | 6.92 | 8.67 | 10.1 | 3.2 | 15.3 | 8.05 | 5.91 | 17 | 10 | 1.05 | 31.1 | 7.15 | 11.5 |
| WCSNDYLGMSR [ALAS2_Y199] | 0.895 | 0.773 | 0.642 | 0.843 | 3.41 | 0.781 | 1.85 | 0.959 | 1.57 | 0.5 | 0.752 | 0.551 | 0.845 | 0.6 | 1.25 | 0.398 |
| WFKKFYDANCD [MAPRE2_Y158_Y162C] | 0.848 | 0.78 | 0.513 | 0.397 | 0.948 | 0.475 | 1 | 0.77 | 0.472 | 0.453 | 0.426 | 0.46 | 1.21 | 0.749 | 0.707 | 0.35 |
| WFPFTYVEEDE [VAV3_Y842_S840Y_YF] | 1.48 | 1.48 | 1.23 | 0.521 | 1.1 | 0.437 | 1.19 | 0.702 | 0.52 | 0.547 | 0.473 | 0.516 | 1.11 | 0.655 | 0.692 | 0.453 |
| WFPYTYVEEDE [VAV3_Y842_S840Y] | 0.879 | 1.91 | 3.92 | 1.3 | 1.08 | 0.616 | 1.47 | 1.16 | 1.56 | 0.899 | 0.773 | 0.843 | 1.3 | 0.746 | 1.72 | 0.625 |
| WGLCSYFETSK [MAGED2_Y448_R446C_YF] | 1.11 | 0.797 | 0.698 | 0.698 | 1.34 | 0.523 | 1.29 | 0.671 | 0.768 | 0.62 | 0.633 | 0.423 | 1.55 | 0.926 | 0.847 | 0.403 |
| WKGSWYSMKKM [FGB_Y475_R478K] | 1.3 | 1.37 | 1.19 | 0.373 | 0.859 | 0.437 | 0.736 | 0.645 | 0.488 | 0.353 | 0.506 | 0.488 | 0.918 | 0.533 | 0.553 | 0.362 |
| WQQQSYLDSRI [CTNNB1_Y30_G34R] | 0.894 | 0.645 | 0.571 | 0.4 | 0.623 | 0.476 | 0.675 | 0.444 | 0.484 | 0.455 | 0.473 | 0.465 | 0.793 | 0.482 | 0.496 | 0.515 |
| WYQTKYEELQI [KRT6B_Y360] | 0.798 | 1.2 | 5.9 | 0.552 | 1.15 | 0.649 | 1.11 | 0.454 | 0.503 | 0.614 | 0.639 | 0.474 | 1.23 | 0.741 | 0.727 | 0.437 |
| YCGYSYDDIPD [TMEM230_Y112_R108C] | 0.988 | 1.43 | 10.6 | 1.75 | 1.36 | 0.799 | 2.47 | 0.818 | 1.53 | 1.95 | 0.954 | 0.932 | 1.34 | 0.926 | 1.57 | 1.03 |
| YEAMEYLESKQ [BTK_Y511_C506Y] | 0.646 | 0.649 | 10 | 0.568 | 1.14 | 0.805 | 1.84 | 2.15 | 1.15 | 3.06 | 0.843 | 0.654 | 1.28 | 0.836 | 1.04 | 3.12 |
| YEEDPYLVVNP [MCM6_Y810] | 1.2 | 0.855 | 3.48 | 2.48 | 1.37 | 1.06 | 1.79 | 0.648 | 1.52 | 0.825 | 0.56 | 1.99 | 1.37 | 0.861 | 1.52 | 0.605 |
| YEHVGYTTLNR [CHN1_Y148] | 0.904 | 19.4 | 16.5 | 0.655 | 0.725 | 2.79 | 0.72 | 0.616 | 0.725 | 4.18 | 0.758 | 0.657 | 0.658 | 1.01 | 0.597 | 4.18 |
| YEPDAYYDLDQ [ELP5_Y302_D303Y] | 0.807 | 0.626 | 1.88 | 2.06 | 1.61 | 0.852 | 1.82 | 1.05 | 8.16 | 0.919 | 0.833 | 1.62 | 1.56 | 0.861 | 6.94 | 0.65 |
